One assay has as its target T1, murine IL-17C (mouse, UniProt Q8K4C5 17-194, limits assumed).
T1 construct: Endogenous IL-17C in paraffin sections of ear skin of BALB/c mice (IHC); also called IL-17C (mouse skin)
T1 sequence (looked up): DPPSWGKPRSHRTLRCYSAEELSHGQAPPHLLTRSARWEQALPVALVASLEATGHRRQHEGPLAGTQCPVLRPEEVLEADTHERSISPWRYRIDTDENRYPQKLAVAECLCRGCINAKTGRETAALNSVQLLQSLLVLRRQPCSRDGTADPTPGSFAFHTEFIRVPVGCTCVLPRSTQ
The assay is described as follows: IHC on paraffin sections of mouse ear skin (MC903 model), biotinylated antibody. How it is done: (§1) 4 μm-thick slices from paraffin-embedded skin biopsies from healthy subjects and subjects with atopic dermatitis were analyzed by IHC. Staining for IL-17C expression was performed with biotinylated MOR22420 (and MOR03207 isotype control antibody). In brief, sections were deparaffinised, rehydrated and unmasked by heat epitope antigen retrieval. Endogenous peroxidase was blocked in BLOXALL™ Blocking Solution (Vector Laboratories) and non-specific binding was blocked with 2.5% Horse Serum Blocking Solution (Vector Laboratories). The primary antibodies were incubated for one hour at room temperature. Binding of MOR22420 biotinylated antibody and MOR03207 biotinylated antibody was detected by incubation with Avidin Biotin Peroxidase Complex (Vector Laboratories). The signal was developed using the peroxidase substrate diaminobenzidine tetrahydrochloride (Sigma). Mayer's hematoxylin (BDH) was used for counterstaining before dehydration and mounting of slides.
At sacrifice, samples form ear skin were collected and fixed in 4% formaldehyde before embedding in paraffin. […] Five fields per ear (high power field ×20) covering the whole ear from top to bottom were measured, and the 5 values were averaged per ear and per mice (left/right ear). […]

The target in a further assay is T2, human IL-17C (human, UniProt Q9P0M4 19-197).
T2 construct: Endogenous IL-17C in paraffin sections of human skin biopsies (IHC); The background calls IL-17C a secreted homodimer; also called interleukin 17C
T2 sequence: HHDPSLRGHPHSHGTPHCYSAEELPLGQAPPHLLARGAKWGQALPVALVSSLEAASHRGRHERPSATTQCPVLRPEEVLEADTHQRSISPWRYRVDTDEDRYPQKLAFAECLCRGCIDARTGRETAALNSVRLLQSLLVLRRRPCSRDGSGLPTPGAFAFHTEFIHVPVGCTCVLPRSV
As to the kind of experiment: IHC on paraffin sections of human skin (healthy and atopic dermatitis), biotinylated antibody, avidin-biotin-peroxidase detection. The procedure: as §1

B1: MOR12743 (antibody, V domains shown)
VH: QVQLVQSGAEVKKPGASVKVSCKASGYTFTSNFIHWVRQAPGQGLEWMGWISPYNGDTNYAQKFQGRVTMTRDTSISTAYMELSRLRSEDTAVYYCARESVYYGSDYGYNGMDIWGQGTLVTVSS
VL: DIELTQPPSVSVSPGQTASITCSGDNLGEEYVSWYQQKPGQAPVLVIYDDTKRPSGIPERFSGSNSGNTATLTISGTQAEDEADYYCASWDLWSVEVFGGGTKLTVLG
notes: Said to be disclosed and characterized in WO 2013/057241; also called anti-IL-17C biotinylated MOR12743 antibody; anti-IL-17C MORI 2743 antibody
Turning to B1, in the assay with murine IL-17C, the binding result is “binds”.

B2: MOR22420 (antibody, V domains shown)
VH: QVQLVQSGAEVKKPGSSVKVSCKASGGTFSSYAISWVRQAPGQGLEWMGTIDPFFGKTYYAQKFQGRVTITADESTSTAYMELSSLRSEDTAVYYCARDVSSISYYFHEYYSDRFDYWGQGTLVTVSS
VL: DIALTQPASVSGSPGQSITISCTGTSSDVGGYEYVNWYQQHPGKAPKLMIYDDSYRPSGVSNRFSGSKSGNTASLTISGLQAEDEADYYCQSTDPHSTVVFGGGTKLTVLG
notes: also called biotinylated MOR22420; MOR22420 antibody
In the case of B2, the binding result with human IL-17C is given as “binds”.

These data come from patent US20180273614A1 (GALAPAGOS, published 2018).
